In patent publication US20220009987A9, “HUMAN RESISTIN COMPOSITIONS AND METHODS OF TREATING TLR4-MEDIATED DISEASE AND INFECTION” (THE REGENTS OF THE UNIVERSITY OF CALIFORNIA, priority 2017, published 2022):

Experiments:
TLR4 [1] = assay: hRetn cellular binding assay on dissociated lung cells from Nb-infected Tlr4+/+ or Tlr4−/− mice; assay type: cell-based, mouse
Protocol: (§1) Binding Assay and Flow Cytometry. Single cell suspension of lung tissue was prepared and hRetn binding was measured as previously described in Jang et al., 2015, supra. Briefly, dissociated lung cells were incubated for 1 hour at 4° C. with 0.5 μg recombinant hResistin (Peprotech) or PBS, followed by 2× wash in FACS buffer, incubation with Fc block (5 μg/mL αCD16/32 and 10 μg/mL purified rat IgG1, 5 min at 4° C.). Cells were stained with biotinylated α-hRetn (Peprotech, 30 min at 4° C.) followed by detection with BV605-conjugated streptavidin (BD) and surface marker antibodies. To collect peritoneal exudate cells (PECs), the peritoneal cavity was washed and PECs recovered in 5 mL ice cold PBS. Surface marker antibodies were: F4/80 (clone A3-1), SiglecF (clone E50-2440), CD4 (clone RM4-5), Ly6C (HK1.4), CD11b (clone M1/70), CD11c (clone N418), Ly6G (clone 1A8), MHCII (clone M5/114.15.2) and CD3e (clone 145-2C11), CD115 (clone AFS98), purchased from Affymetrix, BD Biosciences or Biolegend. Cell populations were determined as follows: peritoneal macrophage (F4/80+CD11b+), neutrophils (Ly6G+CD11b+), eosinophils (SiglecF+CD11c−) and monocyte (Ly6C+CD11b+), alveolar macrophages (F4/80+CD11c+). For flow cytometric analysis, all samples were run on the BD LSRII and analyzed on FlowJo (v10).

TLR4 [2] = biological target: T1, TLR4 (Mus musculus, UniProt Q9QUK6); assay: as above; assay type: cell-based; conditions: Ly6C+CD11b+ lung cells, Nb-infected mice
T1 construct: from tissue; host or cells: dissociated lung cells (monocytes, alveolar macrophages, neutrophils) of day 7 Nb-infected mice
T1 sequence (Q9QUK6 26-835): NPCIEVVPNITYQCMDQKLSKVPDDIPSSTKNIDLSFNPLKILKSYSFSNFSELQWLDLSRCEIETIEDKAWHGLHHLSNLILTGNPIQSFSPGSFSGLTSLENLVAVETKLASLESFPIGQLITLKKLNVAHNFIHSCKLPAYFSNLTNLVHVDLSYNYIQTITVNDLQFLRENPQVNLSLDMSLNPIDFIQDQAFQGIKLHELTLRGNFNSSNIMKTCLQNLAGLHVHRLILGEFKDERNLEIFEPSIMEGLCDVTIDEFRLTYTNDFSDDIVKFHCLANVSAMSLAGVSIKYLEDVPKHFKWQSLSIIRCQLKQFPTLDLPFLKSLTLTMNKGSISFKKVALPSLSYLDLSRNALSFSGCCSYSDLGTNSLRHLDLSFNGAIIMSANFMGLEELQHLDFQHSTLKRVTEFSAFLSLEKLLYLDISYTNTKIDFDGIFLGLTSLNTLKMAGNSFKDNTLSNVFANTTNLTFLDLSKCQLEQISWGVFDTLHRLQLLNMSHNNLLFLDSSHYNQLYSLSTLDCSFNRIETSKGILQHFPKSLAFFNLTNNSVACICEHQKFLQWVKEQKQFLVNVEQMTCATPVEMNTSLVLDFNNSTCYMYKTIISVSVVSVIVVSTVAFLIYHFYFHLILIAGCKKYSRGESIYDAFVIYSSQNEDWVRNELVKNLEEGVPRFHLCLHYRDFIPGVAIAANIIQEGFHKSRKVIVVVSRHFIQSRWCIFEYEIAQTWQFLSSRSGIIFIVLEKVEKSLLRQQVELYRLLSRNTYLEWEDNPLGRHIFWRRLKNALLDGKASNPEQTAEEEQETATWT
Protocol: as §1

human TLR4 = human TLR4 (Homo sapiens, UniProt O00206); assay: Pull-down assay with His-tagged human TLR4; assay type: binding; conditions: nickel-NTA agarose beads, anti-hRetn blot
Protocol: Pull-down Assay. 1 μg/ml protein His-tagged MBP, human TLR4 and human CAP1 were added to nickel-nitrilotriacetic acid-agarose beads (Invitrogen) in binding buffer (50 mM NaH2PO4, 500 mM NaCl, 10 mM Imidazole, pH 8.0) and mixed for 1 hour at 4° C., followed by washing and 1 h incubation at 4° C. with hRetn (E. coli-derived, Peprotech or 293T cell-derived, LifeSpan Biosciences) in binding buffer. Beads were washed in wash buffer (50 mM NaH2PO4, 500 mM NaCl, 20 mM Imidazole, pH 8.0), and complex protein eluted with elution buffer (50 mM NaH2PO4, 500 mM NaCl, 250 mM Imidazole, pH 6.0). His-MBP, His-TLR4 and His-CAP1 were detected by anti-His antibody (Abcam), and hRetn was detected by anti-hRetn antibody (donated by Mitchell Lazar) by Western Blot. For the N-peptide binding experiment, 1 μg/ml His-tagged human TLR4 with 500 ng/ml N-peptide or 10% TFE control was added to the beads in binding buffer and mixed for 30 min at 4° C., followed by co-immunoprecipitation using 1 μg/ml Flag-hRetn (LifeSpan Biosciences), anti-His or anti-Flag (Sigma).

Sequence of human TLR4 (O00206 24-839): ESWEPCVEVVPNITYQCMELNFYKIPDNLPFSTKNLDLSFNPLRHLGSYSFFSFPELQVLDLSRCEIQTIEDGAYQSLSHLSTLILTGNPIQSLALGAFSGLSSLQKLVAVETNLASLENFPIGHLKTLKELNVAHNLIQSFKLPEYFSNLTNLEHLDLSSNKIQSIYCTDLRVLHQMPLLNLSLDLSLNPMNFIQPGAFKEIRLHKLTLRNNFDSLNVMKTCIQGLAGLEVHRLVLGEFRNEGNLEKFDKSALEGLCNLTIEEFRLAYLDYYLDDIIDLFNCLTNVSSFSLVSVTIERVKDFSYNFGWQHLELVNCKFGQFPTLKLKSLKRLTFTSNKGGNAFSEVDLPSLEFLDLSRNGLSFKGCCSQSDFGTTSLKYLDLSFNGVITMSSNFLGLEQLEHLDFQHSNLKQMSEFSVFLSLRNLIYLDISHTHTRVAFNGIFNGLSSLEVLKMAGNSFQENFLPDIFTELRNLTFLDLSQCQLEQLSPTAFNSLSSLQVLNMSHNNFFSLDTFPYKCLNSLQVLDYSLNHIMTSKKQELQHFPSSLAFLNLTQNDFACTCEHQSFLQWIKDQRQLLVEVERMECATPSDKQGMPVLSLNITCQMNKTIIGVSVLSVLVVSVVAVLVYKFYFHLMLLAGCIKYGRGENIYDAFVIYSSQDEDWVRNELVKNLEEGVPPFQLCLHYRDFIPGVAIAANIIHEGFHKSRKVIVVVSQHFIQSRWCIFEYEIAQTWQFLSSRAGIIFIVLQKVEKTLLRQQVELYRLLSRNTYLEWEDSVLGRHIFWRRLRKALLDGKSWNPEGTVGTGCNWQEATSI

B1: hRetn: human resistin protein (hRetn) having an amino acid sequence of SEQ ID NO: 1; recombinant, E. coli-derived or 293T cell-derived (protein, listed as Homo sapiens)
chain: MKALCLLLLPVLGLLVSSKTLCSMEEAINERIQEVAGSLIFRAISSIGLECQSVTSRGDLATCPRGFAVTGCTCGSACGSWDVRAETTCHCQCAGMDWTGARCCRVQP
hRetn binding to alveolar macrophages (TLR4 [1]; F4/80+CD11c+ lung cells, Tlr4+/+ vs Tlr4−/−): TLR4-dependent binding
hRetn binding to Tlr4−/− monocytes (TLR4 [1]; Ly6C+CD11b+ lung cells, Nb-infected mice): significantly abrogated
hRetn binding to neutrophils in the absence of TLR4 (TLR4 [1]; Ly6G+CD11b+ lung cells, Tlr4−/−): not noticeably affected
frequency of hRetn-bound cells in monocytes (TLR4 [1]; lung cells, Nb-infected mice): 15%
frequency of hRetn-bound cells in neutrophils (TLR4 [1]; lung cells, Nb-infected mice): 8%
hRetn binding to Tlr4+/+ monocytes (TLR4 [2]): able to bind hRetn
hRetn in pull-down elution with his-TLR4 (Western blot) (human TLR4): only present in the elution with his-TLR4
hRetn in pull-down elution with his-TLR4 (Western blot) (human TLR4; listed as mammalian-derived hRetn): only detected when pulled down with his-TLR4
